Earlier results in PMC3022782.

Target: β sliding clamp rim (Escherichia coli) (UniProt P0A988)
Chain of UniProt P0A988 (P0A988 whole entry): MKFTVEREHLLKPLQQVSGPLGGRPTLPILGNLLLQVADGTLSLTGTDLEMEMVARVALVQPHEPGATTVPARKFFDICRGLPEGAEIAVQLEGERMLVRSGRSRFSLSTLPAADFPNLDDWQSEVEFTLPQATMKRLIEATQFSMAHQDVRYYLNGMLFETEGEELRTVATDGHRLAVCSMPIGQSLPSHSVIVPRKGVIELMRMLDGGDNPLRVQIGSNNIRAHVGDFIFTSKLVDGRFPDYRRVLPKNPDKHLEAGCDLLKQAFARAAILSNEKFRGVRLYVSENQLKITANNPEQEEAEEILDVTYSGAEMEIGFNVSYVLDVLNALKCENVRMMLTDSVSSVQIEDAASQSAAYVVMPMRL

Pol IV (from UniProt Q47155)
Kd: 1000 nM
